The text below walks through data of the nanobody polyreactivity screen of Harvey et al. (2022).

The data set can be described thus: yeast display, Sf9 membrane polyspecificity reagent, FACS + sequencing; frameworks hold sequencing errors. In short, it runs like this:
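Nanobodies from a synthetic yeast display library (Saccharomyces cerevisiae BJ5465), induced 36–48 hours with galactose, were stained 1 hour at 4 °C with 10% biotinylated, detergent-solubilized Sf9 membrane reagent, enriched on streptavidin microbeads, then FACS-sorted. Anti-HA (expression) and streptavidin (reagent binding) fluorescence set low and high (top ~1%) gates. Polyreactivity labels come from the gate of origin. Genes were colony-PCR amplified, MiSeq 2 × 250 sequenced and filtered by CDR length.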
Consider “QVQLVESGGGLVQAGGSLRLSCAASGRTFDYNAMGWSRQAPGKERELVAAISSSGGSTYYADSVKGRFTISRDNAKNTVYLQMNSLKPEDTAVYYCATLYPRKSIYYYWGQGTQVTVSS”, for which the “polyreactivity (PSR sort gate)” value is “high polyreactivity”.
Take “QVQLVESGGGLVQAGGSLRLSCAASGRTFDYNAMGWYRQAPGKERELVAAISSSGGTTYYADPVKGRFTISRDNAKNTVYLQMNSLKPEDTAVYYCNADVGHKYKRRVSLYYWGQGTQVTVSS”: the “polyreactivity (PSR sort gate)” value was “low polyreactivity”.
To “QVQLVESGGGLVQAGGSLRLSCAASGRTFDYNAMGWYRQAPGKEWELVADIRLISGNTYYADSVKGRFTISRDNAKNTVYLQMNSLKPEETAVYYCAATSDGVPSLYGGMDYRGQGTQVTVSS” belongs “low polyreactivity”; to “QVQLVESGGGLVQAGGSLRLSCAASGRTFDYYAMGWYRQAPGKERELVARISWNGGSTRYADSVKGRFTISRDNAKNTVYLQMNSLKPEDTAVYYCAARYILLARKYDYWGQGTQVTVSS”, “high polyreactivity”.
The result for “QVQLVESGGGLVQAGGSLRLSCAASGRTFDYYSMGWYRQAPGTERELVAAISSSGGRTYYADSVKGRFTISRDNAKNTVYLQMNSLKPEDTAVYYCNAVVSRNYEYWGQGTQVTVSS” reads “high polyreactivity”.
The result for “QVQLVESGGGLVQAGGSLRLSCAASGRTFEIYAMGWYRQAPGKERDLVAAITSGGSTYYADSEKGRFTISRDNAKNTVYLQMNSLKPEDTAVYYCAADSSLYGVIRDFDYWGQGTQVTVSS” reads “high polyreactivity”; that for “QVQLVESGGGLVQAGGSLRLSCAASGRTFELYAMGWYRQAPGKERELVAAIRQSDVSTYYADSVKGRFTISRDNAKNTVYLQMNSLKPEDTAVYYCAARNRYRRRYYYWGQGTQVTVSS”, “high polyreactivity”.
On to “QVQLVESGGGLVQAGGSLRLSCAASGRTFEPNAMGWYRPAPGKERELVAAISSSDGSTYYADSVKGRFTISRDNAKNTVYLQMNSLKPEDTAVYYCAADAGYLYDWPYNYYYWGQGTQVTVSS”, for which the “polyreactivity (PSR sort gate)” value is reported as “low polyreactivity”.
To “QVQLVESGGGLVQAGGSLRLSCAASGRTFEQYAMGWYRQARGKERELVAAISGSGGSTFYADSVKGRFTISRDNAKNTVYLQMNSLKPEDTAVYYCNAPGDGYLYDHTYDYWGQGTQVTVSS” belongs “low polyreactivity”; to “QVQLVESGGGLVQAGGSLRLSCAASGRTFEQYAMVWYRQAPGKERELVAAISGSGGSTFYADSVKGRFTISRDNAKNTVYLQMNSLKPEDTAVYYCNAPGDGYLYDHTYDYGGQGTQVTVSS”, “low polyreactivity”.
Turning to “QVQLVESGGGLVQAGGSLRLSCAASGRTFEQYSMGWYRQAPGKERELVAAISGSGGSTFYADSVKGRFTISRDNAKNTVYLQMNSLKPEDTAVYYCNAPGDGYLYDHTYDYWGQGTQVTVSS”, the “polyreactivity (PSR sort gate)” value was “low polyreactivity”.
The result for “QVQLVESGGGLVQAGGSLRLSCAASGRTFESYVMGWYRQAPGKESELVAAISNGGSTNYADSVKGRFTISRDNAKNTVYLQMNSLKPEDTAVYYCAVRVSGPRGYDYEYWGQGTQVTVSS” reads “low polyreactivity”; that for “QVQLVESGGGLVQAGGSLRLSCAASGRTFEYYAMGWYRQAPGKERELVASITSGGITNYADSVKGRFTISRDNAKNTVYLQMNSLKPEDTAVYYCNKRPWTRFDWGQGTQVTVSS”, “low polyreactivity”; that for “QVQLVESGGGLVQAGGSLRLSCAASGRTFFDYTMGWYRQAPGKERELVAAITGGDGSTYYADSVKGRFTISRDNAKNTVYLQMNSLKPEDTAVYYCAAGYTAGSYSLDADYYWGQGTQVTVSS”, “low polyreactivity”.
As for “QVQLVESGGGLVQAGGSLRLSCAASGRTFFFYAMGWYRQAPGKERELVAGITSRGTRTYYADSVKGRFTISRDNAKNTVYLQMNSLKPEDTAVYYCATDDCRDWLNYWGQGTQVTVSS”, the “polyreactivity (PSR sort gate)” value is “low polyreactivity”.
The result for “QVQLVESGGGLVQAGGSLRLSCAASGRTFFHYAMGGSRQAPGKERELVAAMTSRGDSTYYADSVKGRFTISRDNAKNTVYLQMNSLKPAETAVYYCAVYSHRRNMNYWGQGTQVTVSS” reads “high polyreactivity”; that for “QVQLVESGGGLVQAGGSLRLSCAASGRTFFINAMGWYRQAPGKERELVAAMRVGAGSTYYADSVKGRFTISRDNAKNTVYLQMNSLKPEDTAVYYCSKRTATSTRKYDYWGQGTQVTVSS”, “high polyreactivity”; that for “QVQLVESGGGLVQAGGSLRLSCAASGRTFFINTMGWYRQAPGKEREFVAAITWSAGRTYYADSVKGRFTISRDNAKNTVYLQMNSLKPEDTAVYYCAAALHGHTFPFYYWGQGTQVTVSS”, “low polyreactivity”.
The result for “QVQLVESGGGLVQAGGSLRLSCAASGRTFFIYAMGWYRQAPGKERELVAAIRWRGGSTYYADSVKGRFTISRDNAKNTVYLLMNSLKPEDTAVYYCAASTRQARYEDYYWGQGTQVTVSS” reads “high polyreactivity”; that for “QVQLVESGGGLVQAGGSLRLSCAASGRTFFKYAMGWYRQAPGKERELVATITSSGGITYADSVKGRFTISRDNAKNTVYLQMNSLKPEDTAVYYCNARVWVTHYSELNYWGQGTQLTVSS”, “low polyreactivity”; that for “QVQLVESGGGLVQAGGSLRLSCAASGRTFFKYVKGWYRQAPGKERELVAAISSGGSTNYADSVKGRFTISRDNAKNTVYLQMNSVKPEDTAVYSCAASRYRGYYYWGQGTQVTVSS”, “high polyreactivity”.
To “QVQLVESGGGLVQAGGSLRLSCAASGRTFFLYTMGWYRQAPGKEREFVAAINYSGGRTYYADSVKGRVTISRDHAKNTVYLQMNSLKPEDTAVDYCNAVYSFLYPDHMGYWGQGTQVTVSS” belongs “high polyreactivity”.
For “QVQLVESGGGLVQAGGSLRLSCAASGRTFFPYAMGWYRPAPGKERELVAAITRSGSTYYADSVKGRFTISRDNAKNTVYLQMNSLKPEDTAVYYCAADYSPWRSDFDYWGQGTQVTVSS”, the “polyreactivity (PSR sort gate)” value was “low polyreactivity”.
The result for “QVQLVESGGGLVQAGGSLRLSCAASGRTFFPYAMGWYRQEPGKERELVADIRRGGSTYYADSVKGRFTISRDNAKNNVYLQMYSLKPEDTAVYYCNVDFWWNRLYELDYWGQGTQVTVSS” reads “high polyreactivity”.
To “QVQLVESGGGLVQAGGSLRLSCAASGRTFFRYAMGWYRQAPGKERELVAAISRSGGGTYYADSVKGRFTISRDNAKNTVYLQMNSLKPEDTAVYYCNRDDYSRNHVYEFDYWGQGTQVTVSS” belongs “low polyreactivity”; to “QVQLVESGGGLVQAGGSLRLSCAASGRTFFRYVMGWYRQAPGKERELVAAISRSGGSTYYADSVKGRFTISRDNAKITVYLQMNSLKTEDTAVYYCNSVARSTVVPTEFDYWGQGTQVTVSS”, “high polyreactivity”.
To “QVQLVESGGGLVQAGGSLRLSCAASGRTFFSYAMGWYRQAPGKERELVAAISRRGSSTYYADSVKGRFTISRDNAKNTVYLQMNSLKPEDTAVYYCAADVVRGSRYNRYGYWGQGTQVTVSS” belongs “high polyreactivity”; to “QVQLVESGGGLVQAGGSLRLSCAASGRTFFSYAMGWYRQAPGKERELVAAISWSGGTTYYADSVKGRFTISRDNAKNTVYLQMNSLKPEDTAVYYCAAYVYQEGYRYYYWGQGTQVTVSS”, “high polyreactivity”; to “QVQLVESGGGLVQAGGSLRLSCAASGRTFFTYAMGWYRQAPGKERELVASITRSGVSTYYADSVKGRFTISRDNAKNTVYFQMNSLKPEDTAVYYCNTRYPYYWPIYGYWGQGTQVTVSS”, “high polyreactivity”.
As for “QVQLVESGGGLVQAGGSLRLSCAASGRTFFVNAMGWYRQAPGKERELVATITFSGDSTYYADSVKGRFSISRDNAKNTVYLQMNSLKPEDTAVYYCAAYQGQKGYDYWGQGTQVTVSS”, the “polyreactivity (PSR sort gate)” value is listed as “high polyreactivity”.
The result for “QVQLVESGGGLVQAGGSLRLSCAASGRTFFWNDMGWYRPAPGKERELVAAITWSGGSTYYADSVKGRFTISRDNAKNTVYLQMNSLKPEDTAVYYCDAVVSDYVWRYEYWGQGTQVTVSS” reads “low polyreactivity”; that for “QVQLVESGGGLVQAGGSLRLSCAASGRTFFYYAMGWYRQAPGKERELVAAISTNGGSTYYADSVKGRFTISRDNAKNTVYLQMNSLKPEDTAVYYCNTYATPHRSGGGLGGHYYWGQGTQVTVSS”, “low polyreactivity”.
Regarding “QVQLVESGGGLVQAGGSLRLSCAASGRTFFYYSMGWYIQAPGKEREFVSGISKSGSSTYYADSVKGRFTISRDNPKNTVYLQLISLKPEDTADSYCAAVSKRGAGGRRTEYWGQGTQVTVSA”, the “polyreactivity (PSR sort gate)” value is listed as “high polyreactivity”.
The result for “QVQLVESGGGLVQAGGSLRLSCAASGRTFFYYTMGWYRQAPGKERELVAAITGSGTRTYYADSVKGRFTISRDNAKNTVYYQMNSLKPEDTAVYYCAAGYSDFSGQQVYYWGQGTQVTVSS” reads “high polyreactivity”; that for “QVQLVESGGGLVQAGGSLRLSCAASGRTFGAYAMGWYRQAPGTERELVAAISSSGGSTYYADSVKGRFTISRDNAKNTVYLQMNSLKPEDTAVYYCAKGWHRGVGFGYWGQGTQVTVSS”, “high polyreactivity”.
To “QVQLVESGGGLVQAGGSLRLSCAASGRTFGDYAMGWYRQAPGKERELVAAISGTGGSTYYADSVKGRFTISRDNAKNTVYLQMNSLKPEDTAVYYCAARLKYIRFYYWGQGTQVTVSS” belongs “high polyreactivity”.
In the case of “QVQLVESGGGLVQAGGSLRLSCAASGRTFGDYAMGWYRQAPGKERELVAAISSSGGRTYYADSVKGRFTISRDNAKNTVYLQMNSLKPEDTAVYYCATDYLYVYGFEYYYWGQGTQVTVSS”, the “polyreactivity (PSR sort gate)” value is “high polyreactivity”.
On to “QVQLVESGGGLVQAGGSLRLSCAASGRTFGFNVMGWYRQAPGKERELVAAISRSGGSTYYADSVKGRFTISRDNAKNTVYLQMNRLKPEDTAVYYCNKRYVHRYGYWGPGTQVTVSS”, for which the “polyreactivity (PSR sort gate)” value is “low polyreactivity”.
The result for “QVQLVESGGGLVQAGGSLRLSCAASGRTFGFNVMGWYRQAPGKERELVAAISWSGGSTYYADSVKGRFTISRDNAKNTVYLQLNSLKPADTAVYYCNKRYVHRYGYWGQGTQVTVSS” reads “low polyreactivity”; that for “QVQLVESGGGLVQAGGSLRLSCAASGRTFGFYDMGWYRQAPGKERELVAAIRGSIGYTYYADSVKGRITISRDNAKNTVYLQMTSLKPEDTAVYYCAKAIRYPAAKFYWGQGSQVTVSS”, “high polyreactivity”; that for “QVQLVESGGGLVQAGGSLRLSCAASGRTFGGNAMGWNRHAPGKERELVAGINISGGSTNYADSVKGRYTISRDNAKNTVYLQMNSLKPEDSAVYYCNADTAVYAWDDDYWGQGTQVTVSS”, “low polyreactivity”.
